Source: patent US20200087380A1 (Chugai, published 2020)
Substitutions are numbered along the chain they refer to. Numbers in names are those of the source. Where “and” joins values, the source holds several entries; their conditions need not be identical. Equal values may be shown once. Read-outs that look alike come from different tables or passages of the source.

T1: hIL6R (human, UniProt P08887 20-357, limits assumed)
T1 construct: Printed as hIL6R
T1 sequence (looked up): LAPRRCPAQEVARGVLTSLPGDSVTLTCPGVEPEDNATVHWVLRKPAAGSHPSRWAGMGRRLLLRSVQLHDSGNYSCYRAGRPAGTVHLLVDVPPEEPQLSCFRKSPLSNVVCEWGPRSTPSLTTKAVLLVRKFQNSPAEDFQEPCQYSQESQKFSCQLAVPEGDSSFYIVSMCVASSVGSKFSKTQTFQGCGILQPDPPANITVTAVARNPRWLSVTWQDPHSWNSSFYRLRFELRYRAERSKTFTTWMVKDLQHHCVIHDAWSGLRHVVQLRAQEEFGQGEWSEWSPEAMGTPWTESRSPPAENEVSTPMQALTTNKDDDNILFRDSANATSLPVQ

B1: anti-GPC3 antibody with H chain constant region TH13 (K147E, Q175E) and L chain constant region TL16 (T180K, S131K, Q160K) (antibody, human IgG1, kappa)
heavy: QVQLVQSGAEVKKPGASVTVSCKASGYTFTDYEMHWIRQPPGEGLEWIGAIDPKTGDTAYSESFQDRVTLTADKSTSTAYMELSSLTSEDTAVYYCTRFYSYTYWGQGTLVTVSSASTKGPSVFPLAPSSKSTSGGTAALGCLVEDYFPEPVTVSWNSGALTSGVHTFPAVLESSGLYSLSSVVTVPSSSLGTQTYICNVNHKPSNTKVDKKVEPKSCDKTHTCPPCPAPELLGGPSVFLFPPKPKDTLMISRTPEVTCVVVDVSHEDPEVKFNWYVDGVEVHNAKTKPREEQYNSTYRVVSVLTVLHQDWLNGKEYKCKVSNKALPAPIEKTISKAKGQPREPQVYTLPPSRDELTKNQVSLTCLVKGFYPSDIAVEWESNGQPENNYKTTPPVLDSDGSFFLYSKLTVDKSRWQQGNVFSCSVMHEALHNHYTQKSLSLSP
light: DIVMTQSPLSLPVTPGEPASISCQASESLVHSNRNTYLHWYLQKPGQSPQLLIYKVSNRFSGVPDRFSGSGSGTDFTLKISRVEAEDVGVYYCSQNTHVPPTFGQGTKVEIERTVAAPSVFIFPPSDEQLKSGTAKVVCLLNNFYPREAKVQWKVDNALQSGNSKESVTEQDSKDSTYSLSSTLKLSKADYEKHKVYACEVTHQGLSSPVTKSFNRGEC
notes: IgG1/kappa; also called TH13/TL16
B2: 4ch_004 (anti-IL6R MH0-TH2k/ML0-TL17 and anti-GPC3 GpH7-TH13h/GpL16-TL16; KiH + CH1/CL_1) (bispecific antibody, human IgG1, kappa)
heavy 1: not shown
light 1: not shown
heavy 2: not shown
light 2: B1 light
notes: IgG1/kappa bispecific with knob (k) and hole (h) H chains
B3: 4ch_001 (anti-IL6R MH0-G1d/ML0-k0 and anti-GPC3 GpH7-G1d/GpL16-k0, no CH1/CL or KiH modification) (bispecific antibody, human IgG1, kappa)
heavy 1: not shown
light 1: not shown
heavy 2: not shown
light 2: B1 light with K136S, K165Q, K185T
notes: Four chains co-expressed without pairing control
B4: 4ch_008 (anti-IL6R MH0-TH13k/ML0-TL16 and anti-GPC3 GpH7-TH2h/GpL16-TL17; KiH + CH1/CL_1) (bispecific antibody, human IgG1, kappa)
heavy 1: not shown
light 1: not shown
heavy 2: not shown
light 2: B1 light with K136E, K165E, K185E
notes: as for B2
B5: 4ch_006 (anti-IL6R MH0-TH2k/ML0-TL17 and anti-GPC3 GpH7-TH15h/GpL16-TL19; KiH + CH1/CL_2) (bispecific antibody, human IgG1, kappa)
heavy 1: not shown
light 1: not shown
heavy 2: not shown
light 2: B1 light with E128K
notes: as for B2
B6: anti-GPC3 antibody with H chain constant region G1d and L chain constant region k0 (GpH7-G1d / GpL16-k0) (antibody, human IgG1, kappa)
heavy: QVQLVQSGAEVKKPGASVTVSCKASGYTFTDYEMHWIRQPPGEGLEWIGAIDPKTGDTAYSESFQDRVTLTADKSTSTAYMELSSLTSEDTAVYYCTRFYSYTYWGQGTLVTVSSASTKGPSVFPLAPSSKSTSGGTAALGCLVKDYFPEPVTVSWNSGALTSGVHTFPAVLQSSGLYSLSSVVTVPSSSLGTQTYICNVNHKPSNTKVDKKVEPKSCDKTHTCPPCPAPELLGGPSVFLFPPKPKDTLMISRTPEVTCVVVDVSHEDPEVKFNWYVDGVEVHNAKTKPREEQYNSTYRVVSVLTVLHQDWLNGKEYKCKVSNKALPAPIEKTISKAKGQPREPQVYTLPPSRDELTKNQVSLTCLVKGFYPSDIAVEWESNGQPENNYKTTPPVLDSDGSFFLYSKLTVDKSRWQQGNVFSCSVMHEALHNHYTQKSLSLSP
light: B1 light with K136S, K165Q, K185T
notes: IgG1/kappa; also called G1d/k0; native G1d/k0
B7: 4ch_010 (anti-IL6R MH0-TH15k/ML0-TL19 and anti-GPC3 GpH7-TH2h/GpL16-TL17; KiH + CH1/CL_2) (bispecific antibody, human IgG1, kappa)
heavy 1: not shown
light 1: not shown
heavy 2: not shown
light 2: B1 light with K136E, K165E, K185E
notes: as for B2
B8: anti-GPC3 antibody with H chain constant region TH15 (K147E, Q175E, K213E) and L chain constant region TL19 (T180K, S131K, Q160K, E123K) (antibody, human IgG1, kappa)
heavy: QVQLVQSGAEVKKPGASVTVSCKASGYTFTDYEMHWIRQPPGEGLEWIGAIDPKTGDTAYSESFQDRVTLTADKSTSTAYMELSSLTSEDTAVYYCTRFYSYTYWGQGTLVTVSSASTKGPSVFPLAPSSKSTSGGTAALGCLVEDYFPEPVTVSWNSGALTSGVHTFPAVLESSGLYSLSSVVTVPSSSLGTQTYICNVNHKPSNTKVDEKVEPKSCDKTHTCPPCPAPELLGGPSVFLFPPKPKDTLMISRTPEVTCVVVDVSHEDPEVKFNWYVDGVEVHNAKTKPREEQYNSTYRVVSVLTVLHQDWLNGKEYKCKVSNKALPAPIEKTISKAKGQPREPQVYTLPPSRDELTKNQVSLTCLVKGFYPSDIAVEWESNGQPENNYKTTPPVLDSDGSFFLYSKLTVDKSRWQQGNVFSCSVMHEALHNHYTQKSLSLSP
light: B1 light with E128K
notes: IgG1/kappa; also called TH15/TL19
B9: anti-GPC3 antibody with H chain constant region TH2 (Q175K) and L chain constant region TL17 (T180E, S131E, Q160E) (antibody, human IgG1, kappa)
heavy: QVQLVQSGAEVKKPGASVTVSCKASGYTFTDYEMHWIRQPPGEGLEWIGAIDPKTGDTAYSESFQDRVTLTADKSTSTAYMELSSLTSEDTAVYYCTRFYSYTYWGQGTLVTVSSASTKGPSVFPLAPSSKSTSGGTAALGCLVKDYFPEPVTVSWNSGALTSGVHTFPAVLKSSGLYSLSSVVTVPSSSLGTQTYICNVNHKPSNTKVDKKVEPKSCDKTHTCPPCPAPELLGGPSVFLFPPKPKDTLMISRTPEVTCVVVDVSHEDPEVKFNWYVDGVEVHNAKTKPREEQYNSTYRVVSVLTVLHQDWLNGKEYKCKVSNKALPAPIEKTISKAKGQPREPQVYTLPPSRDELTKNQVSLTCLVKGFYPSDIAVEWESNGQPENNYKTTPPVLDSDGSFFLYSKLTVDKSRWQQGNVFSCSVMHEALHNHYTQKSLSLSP
light: B1 light with K136E, K165E, K185E
notes: IgG1/kappa; also called TH2/TL17

Columns and labels:
Assay in all cases: SPR (Biacore T100), antibody captured on Protein A/G chip, antigen as analyte, 25 C, 1:1 Langmuir fit
GPC3 [1] = molecular target: T2, GPC3 (UniProt P51654 25-563, limits assumed)
T2 construct: also called glypican-3
T2 sequence (P51654 25-563 limits assumed): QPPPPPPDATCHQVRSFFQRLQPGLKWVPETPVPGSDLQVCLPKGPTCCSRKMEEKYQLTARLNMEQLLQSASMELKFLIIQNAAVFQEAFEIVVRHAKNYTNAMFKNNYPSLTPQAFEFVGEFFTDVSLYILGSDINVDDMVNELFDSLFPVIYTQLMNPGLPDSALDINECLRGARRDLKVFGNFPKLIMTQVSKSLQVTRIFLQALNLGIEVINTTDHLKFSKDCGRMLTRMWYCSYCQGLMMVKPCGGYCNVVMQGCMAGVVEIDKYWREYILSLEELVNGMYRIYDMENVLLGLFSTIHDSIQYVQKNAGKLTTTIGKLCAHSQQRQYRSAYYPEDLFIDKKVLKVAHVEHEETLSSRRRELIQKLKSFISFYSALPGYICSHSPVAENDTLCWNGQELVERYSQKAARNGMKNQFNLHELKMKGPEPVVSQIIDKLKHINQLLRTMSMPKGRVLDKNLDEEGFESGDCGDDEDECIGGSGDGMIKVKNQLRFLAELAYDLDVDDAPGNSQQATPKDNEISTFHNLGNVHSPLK
Experimental: (§1) Interactions between a target antibody and hIL6R or GPC3 were analyzed using Biacore T100 (GE Healthcare). HBS-EP+(GE Healthcare) was used for the running buffer, and the measurement temperature was 25° C. Protein A/G (Thermo Scientific) was immobilized on the Series S Sensor Chip CMS (GE Healthcare) by amine coupling, and was used as a chip. A target antibody was captured onto the chip, and interacted with each antigen diluted with running buffer. Antibodies captured on the chip were washed off by reacting with 10 mM glycine-HCl (pH 1.5) to regenerate the chip to be used repeatedly.
(§2) More specifically, the association rate constant ka (L/mol/s) and dissociation rate constant kd (1/s) were calculated by global fitting sensorgrams obtained by measuring with the Biacore Evaluation Software in a 1:1 Langmuir binding model, followed by calculation of dissociation constant KD (mol/L) from those values.

hIL6R = molecular target: T1, hIL6R
Experimental: as §1, §2

GPC3 [2] = molecular target: T2, GPC3; remark: listed apart in the source
Experimental: as §1, §2

| Binder | Kd (GPC3 [1]) | koff (GPC3 [1]) | kon (GPC3 [1]) | Kd (hIL6R) | koff (hIL6R) | kon (hIL6R) | Kd (GPC3 [2]) | koff (GPC3 [2]) | kon (GPC3 [2]) |
| --- | --- | --- | --- | --- | --- | --- | --- | --- | --- |
| B1 | 1.5 nM | 0.0004 s⁻¹ | 270000 M⁻¹ s⁻¹ |  |  |  |  |  |  |
| B2 |  |  |  | 2.8 nM | 0.00047 s⁻¹ | 170000 M⁻¹ s⁻¹ | 1.4 nM | 0.00038 s⁻¹ | 270000 M⁻¹ s⁻¹ |
| B3 |  |  |  | 2.6 nM and 2.8 nM | 0.00041 s⁻¹ | 150000 M⁻¹ s⁻¹ | 1.3 nM | 0.00036 s⁻¹ | 270000 M⁻¹ s⁻¹ |
| B4 |  |  |  | 2.8 nM | 0.00046 s⁻¹ | 160000 M⁻¹ s⁻¹ | 1.5 nM | 0.00039 s⁻¹ | 260000 M⁻¹ s⁻¹ |
| B5 |  |  |  | 2.2 nM | 0.00043 s⁻¹ | 200000 M⁻¹ s⁻¹ | 1.2 nM | 0.00042 s⁻¹ | 340000 M⁻¹ s⁻¹ |
| B6 | 1.3 nM | 0.00036 s⁻¹ | 270000 M⁻¹ s⁻¹ |  |  |  |  |  |  |
| B7 |  |  |  | 2.4 nM | 0.00059 s⁻¹ | 240000 M⁻¹ s⁻¹ | 1.4 nM | 0.00041 s⁻¹ | 290000 M⁻¹ s⁻¹ |
| B8 | 0.99 nM | 0.00038 s⁻¹ | 390000 M⁻¹ s⁻¹ |  |  |  |  |  |  |
| B9 | 1.4 nM | 0.00039 s⁻¹ | 280000 M⁻¹ s⁻¹ |  |  |  |  |  |  |
